{
  "source": "paper PMC3098157",
  "key": {"[1]": {"target": "LEDGF/p75 WT (Lens epithelium-derived growth factor/p75) (UniProt O75475)"}, "[2]": {"target": "LEDGF/p75 ΔPWWP (stably expressed in HEK293T-derived cells)"}, "[3]": {"target": "FLAG-tagged LEDGF/p75 ΔPWWP"}, "[4]": {"target": "FLAG-tagged LEDGF/p75 WT (UniProt O75475)"}},
  "data": [
    {"substance": "Myc-tagged HIV-1 integrase (enzyme)", "values": [
      {"measurement": "salt extraction assay: percent of LEDGF/p75 WT extracted from chromatin at NaCl above 200 mM in cells co-expressing HIV-1 integrase (around 70% without integrase)", "setting": "[1]", "result": "< 1", "unit": "%"},
      {"measurement": "salt extraction assay: percent of LEDGF/p75 ΔPWWP extracted from chromatin at 100 mM and 150 mM NaCl in cells co-expressing HIV-1 integrase (30% and 70% without integrase)", "setting": "[2]", "result": "< 2", "unit": "%"}
    ]},
    {"substance": "Myc-eGFP-tagged HIV-1 integrase WT (enzyme)", "values": [
      {"measurement": "salt extraction assay, transient coexpression: NaCl needed for complete extraction of LEDGF/p75 ΔPWWP from chromatin with integrase WT (150 mM without integrase)", "setting": "[3]", "result": "> 200", "unit": "mM"},
      {"measurement": "salt extraction assay, transient coexpression: NaCl needed to extract LEDGF/p75 WT from chromatin with integrase WT (250 mM without integrase)", "setting": "[4]", "result": "> 300", "unit": "mM"}
    ]}
  ]
}
